Results reported in patent publication US20240161865A1, “METHODS AND PROTEINS FOR TARGETING MAIN PROTEASE OF CORONAVIRUS” (priority 2022, published 2024).

Assay type: physicochemical
Details: 0.5 mg/mL protein, 25 mM HEPES pH 7.5, 1 mM TCEP, scan 15 to 65° C. at 60° C./hour

Substance: WT Mpro: wild-type SARS-CoV-2 main protease (nsp5), recombinant from E. coli
- temperature associated with the DSC thermogram peak: 57.2 °C
